Consider one protein from article PMC3094545 (Structure (London, England : 1993), 2011).

This series deals with the molecule itself. Description: crystal structure.

B1: cytoplasmic domain of ZntB from Salmonella enterica serovar Typhimurium (domain or fragment)
chain: MEAIKGSDVNVPDAVFAWLLDGRGGVKPLEDNDVIDSQHPCWLHLNYTHPDSARWLASTPLLPNNVRDALAGESSRPRVSRMGEGTLITLRCINGSTDERPDQLVAMRLYMDERFIVSTRQRKVLALDDVVSDLQEGTGPVDCGGWLVDVCDALTDHASEFIEELHDKIIDLEDNLLDQQIPPRGFLALLRKQLIVMRRYMAPQRDVYARLASERLPWMSDDHRRRMQDIADRLGRGLDEIDACIARTGIMADEIAQVMQES
Turning to B1, the stoichiometry N (in general, the number of molecules, sites or subunits per partner or assembly) was determined as 5.
